According to publication PMC4067530, “Evidence for a DNA-relay mechanism in ParABS-mediated chromosome segregation” (eLife, 2014):
Blank lines part the entries; values can stand above or below the molecule they belong to.

Tests used:
ParA = molecular target: T1, ParA (Caulobacter vibrioides, UniProt B8GW31, R195E); test: size exclusion chromatography (ATP-dependent dimerization); type: binding; details: 2.5 mM Mg-ATP, pH 7.5, 150 mM potassium glutamate; mutant does not bind DNA
T1 construct: full length, recombinant from E. coli BL21(DE3), pET24HT-ParA, His6 tag removed by TEV protease
T1 sequence (B8GW31 whole entry R195E): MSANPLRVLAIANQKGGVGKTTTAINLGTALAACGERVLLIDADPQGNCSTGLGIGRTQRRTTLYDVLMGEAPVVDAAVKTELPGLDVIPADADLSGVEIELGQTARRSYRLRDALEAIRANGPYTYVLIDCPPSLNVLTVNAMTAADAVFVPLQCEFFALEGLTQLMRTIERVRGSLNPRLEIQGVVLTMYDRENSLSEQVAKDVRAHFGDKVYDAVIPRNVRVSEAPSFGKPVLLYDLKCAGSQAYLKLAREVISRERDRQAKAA

[1] = molecular target: Caulobacter crescentus ParA (wild type) (C. crescentus); test: SEC; +ATP: ParA freed of ATP (EDTA, buffer exchange), then mixed with 2.5 mM Mg-ATP, 10 min at room temperature; 50 µl at approximately 50 µM on Superdex 75 10/300 GL in 25 mM Hepes/KOH pH 7.5, 150 mM KGlu, 5 mM MgSO4, 2 mM Mg-ATP, 0.1 mM EDTA, 1 mM DTT; monomer to dimer
[2] = molecular target: Caulobacter crescentus ParA R195E (DNA-binding deficient mutant) (C. crescentus); test: as above
[3] = molecular target: Caulobacter crescentus ParB-His6 (wild type) (C. crescentus); test: SEC-MALS; SEC-UV/LS/RI; purified His6-ParB on Superose 6 10/30 HR in 100 mM HEPES pH 7.4, 150 mM NaCl, 1 mM DTT, 0.3 ml/min; monomer to dimer
[4] = molecular target: Caulobacter crescentus ParA (wild type) (C. crescentus)
[5] = molecular target: Caulobacter crescentus ParA (wild type) (C. crescentus); remark: listed apart in the source
[6] = substrate: Nc1ncnc2c1ncn2[C@@H]1O[C@H](COP(=O)(O)OP(=O)(O)OP(=O)(O)O)[C@@H](O)[C@H]1O; test: NADH-coupled ATPase assay (pyruvate kinase/lactate dehydrogenase); type: biochemical, Caulobacter vibrioides; details: 10 µM ParA, 1.5 mg/ml salmon sperm DNA, no ParB, 10 mM MgSO4, 150 mM potassium glutamate, pH 7.4, 30 °C
Text: NADH-coupled ATPase assay (pyruvate kinase/lactate dehydrogenase) on ParA | ATPase activity was dependent on the concentration of ATP (Figure 1E), resulting in a KM

Molecule: Nc1ncnc2c1ncn2[C@@H]1O[C@H](COP(=O)(O)OP(=O)(O)OP(=O)(O)O)[C@@H](O)[C@H]1O [ATP]
size exclusion chromatography (ATP-dependent dimerization) (ParA): ParAR195E mutant (Figure 1C), which can still dimerize upon ATP binding (Figure 1A)

stoichiometry N [1]: 2
Molecule: Caulobacter crescentus ParA (wild type) (enzyme)

stoichiometry N [2]: 2
Molecule: Caulobacter crescentus ParA R195E (DNA-binding deficient mutant) (enzyme)

stoichiometry N [3]: 2 | ParA ATPase activity (NADH-coupled assay) with DNA, increase on adding ParB (60 µM) [4]: 10 fold | ParA (3 µM) ATPase activity against ParB concentration in the presence of DNA, Michaelis–Menten fit: apparent K (ParB) [5]: 80 µM
Molecule: Caulobacter crescentus ParB-His6 (wild type) (natural protein)

B1: ParA (Caulobacter vibrioides NA1000) (protein)
chain: MSANPLRVLAIANQKGGVGKTTTAINLGTALAACGERVLLIDADPQGNCSTGLGIGRTQRRTTLYDVLMGEAPVVDAAVKTELPGLDVIPADADLSGVEIELGQTARRSYRLRDALEAIRANGPYTYVLIDCPPSLNVLTVNAMTAADAVFVPLQCEFFALEGLTQLMRTIERVRGSLNPRLEIQGVVLTMYDRRNSLSEQVAKDVRAHFGDKVYDAVIPRNVRVSEAPSFGKPVLLYDLKCAGSQAYLKLAREVISRERDRQAKAA
notes: full length, recombinant from E. coli BL21(DE3), pET24HT-ParA, His6 tag removed by TEV protease
Km [6]: 150 µM | kcat [6]: 0.00164 s⁻¹
